Target: the molecule itself
Assay: non-reducing SDS-PAGE; serum proteins pulled down by immobilised LL37, 15% non-reducing SDS-PAGE, Coomassie; monomer to dimer

B1: apolipoprotein A-II (Apo-AII) of human serum (natural protein)
chain: not shown
notes: Dimeric under non-reducing conditions; In serum it stands in HDL particles together with lipids; also called 17 kDa protein; source: endogenous, crude human serum
stoichiometry N: 2

— paper PMC8850444, “The lipid components of high-density lipoproteins (HDL) are essential for the binding and transportation of antimicrobial peptides in human serum” (Scientific Reports, 2022)
